Test results reported in US20130237684A1 (RESEARCH CORPORATION TECHNOLOGIES, published 2013).
Numbering of substitutions follows the chain as printed. Square brackets hold non-standard residues; d marks the D form. Ends that are not written are not given here. * marks the point of attachment. hSer(lactone) = O=C1OCC[C@@H]1N*

Key:
FN(C)-STAV11 = biological target: T1, FN(C)-STAV11; assay: flow cytometry of mated yeast: surface C-FN3-STAV11 by anti-V5/FITC, captured secreted N-FN3 by anti-FLAG/PE
T1 construct: also called C-FN3-STAV11
T1 chain: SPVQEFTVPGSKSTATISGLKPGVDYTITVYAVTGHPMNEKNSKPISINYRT

[1] = biological target: T2, C-terminal fragment of CD92 (FNfn10 cleaved in the CD loop) (human, UniProt P02751 1578-1631); assay: Trp fluorescence titrations, extrapolated to no urea, 750 mM glycerol
T2 construct: Start at residue 43 is inferred from the N-terminal fragment ending at Asn42
Protocol: (§1) Proteins were dissolved to a final concentration of 500 nM in 20 mM sodium phosphate buffer at pH 6.0 containing 100 mM sodium chloride, 750 mM glycerol unless otherwise noted and various urea concentration between 1 M and 2.5 M. Urea concentration was determined using an Abbe refractometer (Spectronic Instruments) as described (Pace and Sholtz 1997). To obtain ([…] on the reconstitution at conditions without the addition of urea and glycerol, a series of C-terminal fragment-titration experiments with varying urea or glycerol concentrations, respectively, were performed. The dissociation constants in the absence of urea or glycerol were estimated by extrapolation based on experimental data
(§2) A dissociation constant can be determined from a titration experiment where the concentration of the fluorophore is held constant and its corresponding binding partner is added. […] When measuring the dissociation constant, the concentration of the fluorophore has to be lower than or near the dissociation constant. To obtain a more accurate value, a series of titration experiments were performed at higher urea concentration, followed by subsequent extrapolation to compensate for the addition of urea.

[2] = biological target: T2, C-terminal fragment of CD92 (FNfn10 …); assay: Trp fluorescence titration, 750 mM glycerol, 1 M urea, about 500 nM N-terminal fragment
Protocol: as §1, §2

[3] = biological target: the molecule itself; assay: self-association seen by NMR line broadening
[4] = biological target: T2, C-terminal fragment of CD92 (FNfn10 …); assay: Trp fluorescence titrations, extrapolated to plain buffer in the reverse order
Protocol: as §2
(§3) To gain an extrapolation that excluded both glycerol and urea, a stepwise approach was taken that assumed that the two co-solutes had independent effects on the dissociation constant.

[5] = biological target: T2, C-terminal fragment of CD92 (FNfn10 …); assay: Trp fluorescence titrations, extrapolated to plain buffer (no urea, no glycerol)
Protocol: as §2, §3

[6] = biological target: T2, C-terminal fragment of CD92 (FNfn10 …); assay: size exclusion chromatography of the mixed fragments of CD92
Protocol: Size exclusion chromatography was performed on the fragments of CD92 using a Sephadex75 gel filtration column.

Yeast ubiquitin (Sigma) = biological target: T3, Yeast ubiquitin (Sigma) (yeast, UniProt P0CG63 1-76); assay: clone isolated by phage display selection on ubiquitin; listed as ubiquitin-binding monobody
T3 construct: mature; also called soluble ubiquitin; free ubiquitin
T3 sequence (P0CG63 1-76 limits assumed): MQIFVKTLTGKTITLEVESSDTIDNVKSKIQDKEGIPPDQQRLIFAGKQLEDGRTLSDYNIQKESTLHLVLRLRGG

T2 sequence (P02751 other isoform, or with tags, fused parts or gaps): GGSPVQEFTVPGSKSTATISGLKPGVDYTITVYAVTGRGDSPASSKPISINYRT

B1: N-FN3 (residues 1-42) followed by the FLAG tag, secreted from yeast (other)
chain: VSDVPRDLEVVAATPTSLLISWDAPAVTVRYYRITYGETGGN
notes: also called wild-type N-terminal fragment; pGalsecFN(N)FLAG; not shown: FLAG tag
B1: binds (FN(C)-STAV11).

In the case of VSDVPRKLQVVAATPTSLLISWDAPAVTVRYYRITYGETGGNGG[hSer(lactone)] (other, not fully specified, also called mutant CD-loop fragment), the Kd [1] is reported as about 1.5 nM, the Kd [2] is reported as about 10 nM and the binding result [3] is reported as “binds”. For the same binder, the Kd [4] was 3.9 nM, the Kd [5] was 3.6 nM and the Kd [6] was under 1000 nM.

B2: ubiquitin-binding monobody 212 (Fn3 with BC loop CWRRA and FG loop RWVGLAW), phage clone (designed binder, not shown: large carriers; small tags and cut ends)
chain: VSDVPRDLEVVAATPTSLLISWDAPCWRRAYYRITYGETGGNSPVQEFTVPGSKSTATISGLKPGVDYTITVYAVTGRWVGLAWSKPISINYRT
notes: also called clone 212
B2: binds (Yeast ubiquitin (Sigma)).

B3: ubiquitin-binding monobody 213 (Fn3 with BC loop CKHRR and FG loop FADLWWR), phage clone (designed binder, not shown: large carriers; small tags and cut ends)
chain: B2 chain with W27K, R28H, A30R, R78F, W79A, V80D, G81L, L82W, A83W, W84R
notes: also called clone 213
B3: binds (Yeast ubiquitin (Sigma)).

B4: ubiquitin-binding monobody 214 (Fn3 with BC loop CRRGR and FG loop RGFMWLS), phage clone (designed binder, not shown: large carriers; small tags and cut ends)
chain: B2 chain with W27R, R29G, A30R, W79G, V80F, G81M, L82W, A83L, W84S
notes: also called clone 214
B4: binds (Yeast ubiquitin (Sigma)).

B5: ubiquitin-binding monobody 215 (Fn3 with BC loop CNWRR and FG loop RAYRYRW), phage clone (designed binder, not shown: large carriers; small tags and cut ends)
chain: B2 chain with W27N, R28W, A30R, W79A, V80Y, G81R, L82Y, A83R
notes: also called clone 215
B5: binds (Yeast ubiquitin (Sigma)).
